# Test results published in the supplement of paper PMC9170038.
# Experiments:
# [1] = test system: MS2 coat protein; assay: apparent KD of MS2 coat protein; higher = weaker reporter binding; settings: Eterna round: R107
# Experimental: (§1)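 RNA-MaP round R107: designed RNA switches with theophylline, tryptophan, arginine or FMN aptamers are transcribed on-chip within common flanks. They are titrated with SNAP-549-labelled MS2 coat protein in RNA-MaP buffer (100 mM Tris pH 7.5, 80 mM KCl, 4 mM MgCl2), without ligand or with the indicated ligand. Median apparent KD per design.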
# [2] = test system: K4 kissing-loop RNA reporter; assay: apparent KD of K4 kissing-loop reporter; higher = weaker reporter binding; settings: Eterna round: R107;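 further: bound reporter read as fluorescence of individual clusters on recovered sequencing chips by microscopy, with normalized cluster intensities fitted with a binding model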
# Experimental: as §1, with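 “a labelled K4 kissing-loop RNA reporter” for “SNAP-549-labelled MS2 coat protein”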
# [3] = input ligand: theophylline 20 uM
# [4] = input ligand: theophylline 2 mM
# [5] = input ligand: tryptophan 2.4 mM
Sequence,apparent KD of MS2 coat protein ([1]; input ligand: arginine 13.2 mM) [nM],apparent KD of MS2 coat protein ([1]; input ligand: none) [nM],"apparent KD of MS2 coat protein [1, 3] [nM]","apparent KD of MS2 coat protein [1, 4] [nM]","apparent KD of MS2 coat protein [1, 5] [nM]",apparent KD of K4 kissing-loop reporter ([2]; input ligand: FMN 200 uM) [nM],apparent KD of K4 kissing-loop reporter ([2]; input ligand: arginine 13.2 mM) [nM],apparent KD of K4 kissing-loop reporter ([2]; input ligand: none) [nM],"apparent KD of K4 kissing-loop reporter [2, 3] [nM]","apparent KD of K4 kissing-loop reporter [2, 5] [nM]"
CCUCGGGACCGAAGGAGCGAGAUAACAACAAUGGGUCUCUACACAUGAGGAUCACCCAUGUCUCAGGUAGGUCGCGGUACCUUAG [Exclusion Arginine B GF23],137,261,287,491,238,–,–,–,–,–
CACAUGAGGAUCACCCAUGUCUGAACUGAAGGAGCGCUAAACAAGGCAGGUAGGUCGCGGAAUCCCGUGUGCAUAUGCACACGGG [9.Z],24.1,15.6,24.1,20.4,18.9,–,–,–,–,–
ACAUGAGGAUCACCCAUGUACAUCACCCGACGAGGACCGGUACGGCCGCCACUCGGGUAUAUAUUUACAUCGGGUGAUUUUACGU [#23 Tryptophan A Same State],21.9,–,81.2,115,–,–,–,–,–,–
CAAAUAGACCACGAUACCAGAACACAAGGAGUAAUAUCAAACAUGAGGAUCACCCAUGUCUUCCCUUGGCAGCGUAGCACGGAGU [theeternabot_exclusion_MS2_Theo_B_23],13.5,–,15.2,–,11,–,–,–,–,–
ACAUGAGGAUCACCCAUGUGAUGGCACGAUACCAGCUGAUCCCGUGGCCCUUGGCAGCGUCCGGUGUGGUCCGGCGGGUGGGACG [qqwmullin],30.1,21.5,97.8,25.9,21.2,–,–,–,–,–
ACGUUCGCGGUAUCCAACCGGUUGUACAAACGAGGACCGGUACGGCCGCCACUCGUGAUUGUACAUGAGGAUCACCCAUGUGGCA [theeternabot_exclusion_MS2_Trp_A_28],18.7,–,34.1,28.1,–,–,–,–,–,–
UUUUAGCAUCGAAGGAGCGCUGGUGAAACUGACUAUGGAACAUGAGGAUCACCCAUGUGCUAGCAGGUAGGUCGCGAUGCUAUUU [SSAB NP+V+V2 #10],16.9,17.6,20.7,18.1,14.9,–,–,–,–,–
UUUGACGGCGAUCUGGGUUUACCAGAUCGGCGAGGACCGGUACGGCCGCCACUCGUGUUUCUUUGACAUGAGGAUCACCCAUGUA [whbob_SS_trypto A_f2],38.4,–,57.3,60.5,–,–,–,–,–,–
UCCUUAGAUACUGAUACCAGACUACAGUAAACAUGAGGAUCACCCAUGUUUGAUCACUAAGUCCCUUGGCAGCAGGUACAUGGGA [Theo B SS r1],12.6,–,12.9,–,11.9,–,–,–,–,–
UGUAUGUGAUGUGAUACCAGUCCAAUACUGGUAACAUGAGGAUCACCCAUGUAAUGAUGGGACCCUUGGCAGCACAUCGCAUACU [ThBS],175,–,347,–,242,–,–,–,–,–
CAAACAUGAGGAUCACCCAUGUAAUCAGAUACCAGUGACGAAAGUCACCCUUGGCAGCUGAUUACUUUAGUUCUAAGGUGUUUGA [EThA NP+V+V2 #5 +-Same Structure],53.6,–,116,–,38.7,–,–,–,–,–
CCAGAAUGAUGAGGAUGAUAAAUUACUGAAGGAGCGCAUAUAGUUGCAGGUAGGUCGCGGUGAAUAAGUAUAGUGAUGUUAUACC [SSArgA.Ab],–,–,–,–,–,595,327,314,322,341
GGAUAGGACAGAGGAUAUGGUAGUGAUGUUACCAAACUGGUUAUCAAUGUUAGAAAAUUGACAAAACCAGAAGGCUGUCCUAUCG [KL-XFMN-B15],–,–,–,–,–,129,65.6,67.8,59.2,66.6
GGCACUACAGCGGCCGCCACUGUUUAGUCCAUCGCUUGCGAGUGAUGUUCGUAGGUACUGCAGCUCAGGACCGGGCUGUCCUUAC [theeternabot_sameState_KL_Trp_B_34],–,–,–,–,–,475,393,471,310,388
UGUAUGUGAUUUGAUACCAGACCAGCUGGUGGAAACUGAGUGAUGUUCAGUUAGGUUUGGGUCCCUUGGCAGCAAAUCGCAUACU [KL-SSTheoB28],–,–,–,–,–,152,119,127,134,138
AGUGUUAGGUUAGAUACCAGCCGUCUGUGGAUAAUCCACAGACCGCCAGUGAUGUUGGCAGGCCCUUGGCAGCUAACAGGACAGA [Riedingeus],–,–,–,–,–,239,215,220,153,208
UCGCCGCUCACGGCCGCCACUAAGCCCAAGACCAGAGAGUGAUGUUCUAUCCACGUUUCAAUUUUUAGGACCGGGUGAAAGGCGA [theeternabot_sameState_KL_Trp_B_14],–,–,–,–,–,779,411,729,625,618
UGACUGGACUGAAGGAGCGGGCGAGACAAAGUCUCGAACUCGUAGUGAUGUUAUGAAAUAACCCAGGUAGGUCGCAGUCUAGUCU,–,–,–,–,–,1130,684,892,868,789
AGCAAAACCAAAGGAUAUUGGCAGUCGAUGUACCAUGUUCCCGUAGCAGGUUGAGUGAUGUUUAAGCAAGAAGGUUGGCGUUUGG [theeternabot_exclusion_KL_FMN_B_12],–,–,–,–,–,560,302,436,457,368
CGCGCGCGCUGAGAGGCGCGCGCGAAUGAUACCAGUAUAUAAGAAUACCCUUGGCAGCAUAAGAAAGAUAUAGUGAUGUUGUAUA [SSTheophA.D],–,–,–,–,–,75.3,199,43.1,201,29

Sequence,apparent KD of MS2 coat protein ([1]; input ligand: arginine 13.2 mM) [nM],apparent KD of MS2 coat protein ([1]; input ligand: none) [nM],"apparent KD of MS2 coat protein [1, 3] [nM]","apparent KD of MS2 coat protein [1, 4] [nM]","apparent KD of MS2 coat protein [1, 5] [nM]",apparent KD of K4 kissing-loop reporter ([2]; input ligand: FMN 200 uM) [nM],apparent KD of K4 kissing-loop reporter ([2]; input ligand: arginine 13.2 mM) [nM],apparent KD of K4 kissing-loop reporter ([2]; input ligand: none) [nM],"apparent KD of K4 kissing-loop reporter [2, 3] [nM]","apparent KD of K4 kissing-loop reporter [2, 5] [nM]"
UACAAACGUAGUGAUGUUACGUACUCUGAUACCAGACAACUCUAAGUCCCUUGGCAGCAGUCACUUAGCUUAUUAUUUUCUCAAA [JR_Nu_ExcTheophyA_Sub026],–,–,–,–,–,106,134,116,130,103
CCGGGCGGCUGAAGGAGCGGGCGGGCCCGAGUGAUGUUCGGGUGGGCCGUGAGGCCCGGAGCCCAGGUAGGUCGCGGUUCCGUCC [#2 Same State - Arginine B Attempt #18 (HarryS)],–,–,–,–,–,201,139,167,196,140
UUUUUCCCGCAGGAUACCAGCAACCAAACGUCAUGCGAAGUGAUGUUUCGCUUACGGUAGUGCCCUUGGCAGCCUUCGGUAGGGU [thingy],–,–,–,–,–,196,161,183,119,161
AAAUUUAUAUUAGAUACCAGCAUUUUGAAUGUUUAUUAUGACAAGAGUGAUGUUCUUGUAUGCCCUUGGCAGCUGGUAUGGGUUU [KL-XTheo-B24],–,–,–,–,–,123,115,136,120,125
AAGAGAGCGAGAAGGAGCGAGAAAGCUAGUGCAUAUGCACUAGCAAAGCAGUGAUGUUGCACUCAGGUAGGUCGCUCGCUCUCAA [AK1.2 SS Arginine B],–,–,–,–,–,384,292,350,395,291
UAAUAAAUUCCAGCGAUAUCGCUCUUCGAAGGAGCGGACGAAAGUCCAGGUAGGUCGCGGAGAGUGAUGUUCUUUGCGGCGCUGG [whbob_Ex_Arginine_A_2t133],–,–,–,–,–,450,177,356,298,266
GGGCAUCAGGCUGAUACCAGUGAUAAAGGAUAAGAGACAGGGAGUGAUGUUCCCUUUACCCACCCUUGGCAGCAGUUUAAGUUUG [Exclusion Theophylline B GF 16],–,–,–,–,–,92.8,94.9,111,94.3,87.1
GUGGCGGGCCAAGGAUAUAUUUUGGAGUGAUGUUGUUCAUUUAUUUGAGCUAGUGAUGUUGGUCGAAUAGAAGGUGGCCCGCCAC [whbob_Ex_FMNB__2th220],–,–,–,–,–,69.9,27.2,52.8,44.7,45.8
UCGGCGGAGUGAUGUUCCUAUGUCCAAGAUACCAGUCUAUGAACGGACCCUUGGCAGCUUCCAUUAGGUUACUAUUUAGACUCAU [theeternabot_exclusion_KL_Theo_A_10],–,–,–,–,–,190,227,215,248,166
GUAUGUGGAAACACGUACUUAUAUCCUCGACAGGAUAUGCGGAAACGCAGAAGGGUCGCCAACGAGUUUAUCCAGUGAUGUUGGA [Ex FMN A 15],–,–,–,–,–,347,296,362,335,350
UUGUUAUGAUAAAAUCCUGUUUGAUAAAGACAGGAUAUAGAAAAUACUAGAAGGGUCAUUAUAUGCAGUGAUGUUGCAAAUAAGU [Exclusion FMN A Gf 22],–,–,–,–,–,41,60.8,38.4,55.1,35
UGAUAGGACAGAAGGAGCGGAAGUGAUGUUUCCAAAAGAUAUGAUCGACAAAGUCGAUUUUUCCAGGUAGGUCGCUGUCCUAUCU [KL-XARG-B19],–,–,–,–,–,60.5,84.9,66.8,100,66.6
CGGCCGUUAUGAGAUACCAGAGUGGCGACCAGUGAUGUUGGUCGACGCUUGCGGUCGUCUCUCCCUUGGCAGCUUAGUACGAAAG [Inisar],–,–,–,–,–,97.4,88.2,91.8,73.8,91.3
ACGUCACGUAUACUGGUGGUUUCGAUCGAUACCAGUAGCGAGAGUUACCCUUGGCAGCGACAUGAGUGAUGUUCAUGUAUGAAGA [KL-XTheo-A1 #analogue],–,–,–,–,–,100,111,102,113,95.7
CUUGAGACAUGAGUGAUGUUCAUGUCCGAAGGAGCGUGCGAAAGCACAGGUAGGUCGCGGACGUGAGUGAUGUUCAUGUGAGCGA [KL-XArg-A10 #analogue],–,–,–,–,–,236,163,202,223,201
AUCAGUGUCUCACGCUACGACAUAUACGAUACCAGUCACCCUGAUGACCCUUGGCAGCGUCAACGAGUGAUGUUCGGGUUCUAGA [theeternabot_sameState_KL_Theo_A_1],–,–,–,–,–,345,241,404,389,309
AAGCAGUCACUCGAAGCCAUCGAAGAUGGGCGAGGACCGGUACGGCCGCCACUCGGAGUGAUGUUCCGAGGACUGCAAAAUAAAA [MatMod 4 - Jieux - Exclusion - Tryptophan A],–,–,–,–,–,507,365,350,299,311
UGUGUUGUUUUGAUGUUUGGUGUUUGUUGGCAGGAUAUCGUAGAGGCGAGAAGGGCUUGGGAGCGGUAUGAGUGAUGUUUGUAGG [deedwrmullin],–,–,–,–,–,373,186,364,302,245
ACGACGCAUAGUGAUACCAGCAUUAUAUGAGUGAUGUUCUACCUAAAAUGGUAAUAAUUAUGCCCUUGGCAGCACUAUGCGUCAG [KL-SSTheoB3],–,–,–,–,–,340,400,409,501,247
